Patent publication CN114671948A

B1: BoNT/AHc单克隆抗体细胞株1103 (monoclonal antibody of hybridoma cell line 1103) (antibody)
VH: LTMNFGLSWVFLLTLLHGFQCEVKLVKSGGGSVQPGGSLRLSCTTSGFTFSDSYMQWVRQPLGKRLEWITAGRHKANEYTTEWSASTRGRFIVSRDTSQSILNLQMNALRTEDPAISYCARDDCPHFILPRSYYFFDIWGAGTTVTVSSAKTTPPSVYPLAPVCGG
VL: DIVLTQSPASLAVSLGQRATISYRPSKSVSTSRYSYMHWNQQKPGQPPRLLIYLESNLASGVPARFSGSGSGTDFTLNIHPVEEEDAATYYCQLITELTRSEGGPSWKYNGLMLHQLYP
B2: BoNT/AHc单克隆抗体细胞株401 (monoclonal antibody of hybridoma cell line 401) (antibody)
VH: LTMDFGLSLVFLVLTLKGVKCEVQLVESGGGLVKPGGSLKLSCAASGFAFSTSDMSWVRQTPEKRLEWVTYITSGAGNTNYPDTVKGRFTISRDNAKNTLYVQMSSLKSEDTAMYYCARQSRWSLALDYWGQGTLVTVSAAKTTPPSVYPLAPVCGG
VL: LTMETDTLLLWVLLLWVPGSTGDIVLTQSPASLAVSLGQRATISYRGSNSVSISAYSYMHWNQQKPGQPPRLLIYLVWNQESGVPARFSGSGSGTDFTLNIHPVEEEDAATYYCQHITELTRSEGGPSWKSNGLMLHQLYPSPTIQ

Molecular target: A型肉毒毒素 (botulinum toxin type A, sample solution of Example 4) (Clostridium botulinum) (UniProt P0DPI0)
Chain of UniProt P0DPI0 (P0DPI0 868-1296 limits assumed): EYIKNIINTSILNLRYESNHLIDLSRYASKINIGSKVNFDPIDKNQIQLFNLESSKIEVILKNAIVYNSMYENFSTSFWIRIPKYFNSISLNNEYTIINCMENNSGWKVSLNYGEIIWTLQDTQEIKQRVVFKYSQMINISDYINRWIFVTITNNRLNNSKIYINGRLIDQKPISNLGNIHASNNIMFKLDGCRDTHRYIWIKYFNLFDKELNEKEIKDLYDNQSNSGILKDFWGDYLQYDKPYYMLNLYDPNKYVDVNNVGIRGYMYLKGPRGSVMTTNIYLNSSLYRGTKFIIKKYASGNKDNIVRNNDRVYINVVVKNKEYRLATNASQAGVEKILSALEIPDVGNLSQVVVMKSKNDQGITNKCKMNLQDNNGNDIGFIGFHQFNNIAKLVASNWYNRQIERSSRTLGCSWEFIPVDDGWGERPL

Row | Binder | 检测限 (detection limit of the sandwich test) [ng/mL]
1 | B1 | 20
2 | B2 | 20
